Data: patent US20250320281A1

Tests used:
Test in all cases: cell-based or functional assay
[1] = biological target: HIV-1 Env of pseudovirus MGRM-AE-002 (clade CRF01_AE) (HIV-1)
[2] = biological target: HIV-1 Env of isolate MGRM-Chronic-B-002, clade B, on pseudovirus (HIV-1)
[3] = biological target: HIV-1 Env of isolate MGRM-Chronic-B-004, clade B, on pseudovirus (HIV-1)
[4] = biological target: HIV-1 Env of pseudovirus JRFL (HIV-1)
[5] = biological target: HIV-1 envelope glycoprotein (Env) of isolate MGRM-A-003, clade A (HIV-1)
[6] = biological target: HIV-1 Env of pseudovirus MGRM-AG-011 (clade CRF_AG) (HIV-1)
[7] = biological target: HIV-1 Env of isolate MGRM-D-022 (clade D pseudovirus) (HIV-1)
[8] = biological target: HIV-1 Env of pseudovirus MGRM-G-017 (HIV-1, clade G isolate MGRM-G-017)
[9] = biological target: HIV-1 envelope glycoprotein (Env) of isolate 92RW026, clade A (HIV-1)
[10] = biological target: HIV-1 Env of isolate MGRM-D-016 (clade D pseudovirus) (HIV-1)
[11] = biological target: HIV-1 Env of isolate SC422661.8 (Acute), clade B, on pseudovirus (HIV-1)
[12] = biological target: HIV-1 envelope glycoprotein (Env) of isolate 92RW008, clade A (HIV-1)
[13] = biological target: HIV-1 Env of isolate MGRM-D-021 (clade D pseudovirus) (HIV-1)
[14] = biological target: HIV-1 Env of pseudovirus MGRM-F1-017 (HIV-1)
[15] = biological target: HIV-1 92TH021 envelope glycoprotein (Env) on pseudovirus (HIV-1)
[16] = biological target: HIV-1 Env of isolate MGRM-D-014 (clade D pseudovirus) (HIV-1)
[17] = biological target: HIV-1 CMU02 envelope glycoprotein (Env) on pseudovirus (HIV-1)
[18] = biological target: HIV-1 Env of pseudovirus MGRM-AG-002 (clade CRF_AG) (HIV-1)
[19] = biological target: HIV-1 envelope glycoprotein (Env) of isolate 94UG103, clade A (HIV-1)
[20] = biological target: HIV-1 Env of pseudovirus MGRM-AE-007 (clade CRF01_AE) (HIV-1)
[21] = biological target: HIV-1 Env of isolate MGRM-AE-006 (subtype AE) (HIV-1)
[22] = biological target: HIV-1 envelope glycoprotein (Env) of isolate MGRM-C-008 (HIV-1)
[23] = biological target: HIV-1 Env of isolate MGRM-AE-003 (subtype AE) (HIV-1)
[24] = biological target: HIV-1 Env of isolate MG RM-D-001 (HIV-1)
[25] = biological target: HIV-1 Env of isolate MGRM-AG-009 (subtype AG) (HIV-1)
[26] = biological target: HIV-1 Env of isolate 92UG031 (HIV-1)
[27] = biological target: HIV-1 Env of isolate QH0692.42 (subtype B) (HIV-1)
[28] = biological target: HIV-1 JRCSF Env (pseudovirus, clade B) (HIV-1) (UniProt P20871)
[29] = biological target: HIV-1 envelope glycoprotein (Env) of isolate MGRM-C-025 (HIV-1)
[30] = biological target: HIV-1 93IN905 Env (pseudovirus, clade C) (HIV-1)
[31] = biological target: HIV-1 Env of isolate MGRM-AG-005 (clade AG), on pseudovirus (HIV-1)
[32] = biological target: HIV-1 Env of isolate APV-17 (HIV-1)
[33] = biological target: HIV-1 92RW020 Env (pseudovirus, clade A) (HIV-1)
[34] = biological target: HIV-1 Env of isolate MGRM-C-005 (subtype C) (HIV-1)
[35] = biological target: HIV-1 Env of isolate MGRM-A-012 (subtype A) (HIV-1)
[36] = biological target: HIV-1 Env of isolate MGRM-AE-004 (subtype AE) (HIV-1)
[37] = biological target: HIV-1 envelope glycoprotein (Env) of isolate MGRM-C-027 (HIV-1)
[38] = biological target: HIV-1 Env of isolate 98CN009 (HIV-1)
[39] = biological target: HIV-1 MGRM-AG-005 Env (pseudovirus) (HIV-1)
[40] = biological target: HIV-1 Env of isolate MG RM-D-013 (HIV-1)

Chain of 1443_C16 (PG16) (TCN-116) (antibody) (VH): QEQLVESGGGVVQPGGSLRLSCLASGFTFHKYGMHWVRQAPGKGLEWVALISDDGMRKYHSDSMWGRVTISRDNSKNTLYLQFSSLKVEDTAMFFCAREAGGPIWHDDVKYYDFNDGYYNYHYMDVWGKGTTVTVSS
Chain of 1443_C16 (PG16) (TCN-116) (antibody) (VL): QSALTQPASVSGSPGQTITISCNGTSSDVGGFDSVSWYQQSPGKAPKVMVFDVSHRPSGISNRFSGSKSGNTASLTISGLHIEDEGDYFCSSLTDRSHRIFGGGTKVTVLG

In the case of 4E10 (antibody), the IC50 [1] is reported as 0.55 µg/mL, the IC50 (µg/ml), pseudovirus neutralization [2] is reported as 2.19 µg/mL and the IC50 (µg/ml), pseudovirus neutralization [3] is reported as 3.7 µg/mL. The IC50 (µg/ml), pseudovirus neutralization [4] was 18.9 µg/mL, the IC50 (µg/ml), pseudovirus neutralization [5] was 5.94 µg/mL and the IC50 [6] was 1.36 µg/mL. For the same substance, the IC50 (µg/ml), pseudovirus neutralization [7] was 16.9 µg/mL, the IC50 (µg/ml), pseudovirus neutralization [8] was 1.14 µg/mL and the IC50 (µg/ml), pseudovirus neutralization [9] was 12.9 µg/mL. For the same substance, the IC50 (µg/ml), pseudovirus neutralization [10] was 15.4 µg/mL, the IC50 (µg/ml), pseudovirus neutralization [11] was 6.35 µg/mL and the IC50 (µg/ml), pseudovirus neutralization [12] was 14.5 µg/mL. The IC50 (µg/ml), pseudovirus neutralization [13] was 13.3 µg/mL, the IC50 (µg/ml), pseudovirus neutralization [14] was 4.92 µg/mL and the IC50, pseudovirus neutralization [15] was 1.9 µg/mL. For the same substance, the IC50 (µg/ml), pseudovirus neutralization [16] was 3.24 µg/mL, the IC50, pseudovirus neutralization [17] was 0.59 µg/mL and the IC50 [18] was 0.8 µg/mL. The IC50 (µg/ml), pseudovirus neutralization [19] was 4.97 µg/mL and the IC50 [20] was 0.45 µg/mL.
1443_C16 (PG16) (TCN-116) (antibody) was tested, and the IC50 [1] was 0.01 µg/mL, the IC50 (µg/ml), pseudovirus neutralization [2] was 3.06 µg/mL and the IC50 (µg/ml), pseudovirus neutralization [3] was 0.01 µg/mL. For the same substance, the IC50 (µg/ml), pseudovirus neutralization [4] was > 50 µg/mL, the IC50 (µg/ml), pseudovirus neutralization [5] was 2.65 µg/mL and the IC50 [6] was 0.002 µg/mL. For the same substance, the IC50 (µg/ml), pseudovirus neutralization [7] was > 50 µg/mL, the IC50 (µg/ml), pseudovirus neutralization [8] was 0.02 µg/mL and the IC50 (µg/ml), pseudovirus neutralization [9] was 0.03 µg/mL. For the same substance, the IC50 (µg/ml), pseudovirus neutralization [10] was 0.02 µg/mL, the IC50 (µg/ml), pseudovirus neutralization [11] was 1.13 µg/mL and the IC50 (µg/ml), pseudovirus neutralization [12] was 0.002 µg/mL. For the same substance, the IC50 (µg/ml), pseudovirus neutralization [13] was > 50 µg/mL, the IC50 (µg/ml), pseudovirus neutralization [14] was > 50 µg/mL and the IC50, pseudovirus neutralization [15] was 0.127 µg/mL. For the same substance, the IC50 (µg/ml), pseudovirus neutralization [16] was 0.003 µg/mL, the IC50, pseudovirus neutralization [17] was > 50 µg/mL and the IC50 [18] was 0.03 µg/mL. For the same substance, the IC50 (µg/ml), pseudovirus neutralization [19] was 0.04 µg/mL and the IC50 [20] was 0.04 µg/mL.
With 5343_B08 (PGT-135) (antibody) the IC50 (µg/mL), pseudovirus neutralization [21] was > 50 µg/mL, the IC50 (µg/mL), pseudovirus neutralization [22] was > 50 µg/mL and the IC50 (µg/mL), pseudovirus neutralization [23] was > 50 µg/mL. The IC50 (µg/mL), pseudovirus neutralization [24] was > 50 µg/mL, the IC50 (µg/mL), pseudovirus neutralization [25] was > 50 µg/mL and the IC50 [26] was > 50 µg/mL. The IC50 neutralization [27] was > 50 µg/mL, the IC50 neutralization [28] was 0.113 µg/mL and the IC50 (µg/mL), pseudovirus neutralization [29] was > 50 µg/mL. For the same substance, the IC50 neutralization [30] was 0.0183 µg/mL, the IC50, pseudovirus neutralization [31] was > 10 µg/mL and the neutralization IC50 [32] was > 50 µg/mL. For the same substance, the IC50 neutralization [33] was 0.157 µg/mL, the IC50 neutralization [34] was > 50 µg/mL and the IC50 (µg/mL), pseudovirus neutralization [35] was > 50 µg/mL. For the same substance, the IC50 (µg/mL), pseudovirus neutralization [36] was > 50 µg/mL, the IC50 (µg/mL), pseudovirus neutralization [37] was > 50 µg/mL and the IC50 (µg/mL), pseudovirus neutralization [38] was 0.071 µg/mL. The IC50 (neutralizing activity, pseudovirus) [39] was > 10 µg/mL and the IC50 (µg/mL), pseudovirus neutralization [40] was > 50 µg/mL.
Substance b12 (antibody) has an IC50 [1] of 17.1 µg/mL, an IC50 (µg/ml), pseudovirus neutralization [2] of 0.86 µg/mL and an IC50 (µg/ml), pseudovirus neutralization [3] of 0.26 µg/mL. The IC50 (µg/ml), pseudovirus neutralization [4] was 0.02 µg/mL, the IC50 (µg/ml), pseudovirus neutralization [5] was > 50 µg/mL and the IC50 [6] was > 50 µg/mL. The IC50 (µg/ml), pseudovirus neutralization [7] was 17.6 µg/mL, the IC50 (µg/ml), pseudovirus neutralization [8] was > 50 µg/mL and the IC50 (µg/ml), pseudovirus neutralization [9] was > 50 µg/mL. For the same substance, the IC50 (µg/ml), pseudovirus neutralization [10] was 1.12 µg/mL, the IC50 (µg/ml), pseudovirus neutralization [11] was 6.11 µg/mL and the IC50 (µg/ml), pseudovirus neutralization [12] was 9.46 µg/mL. The IC50 (µg/ml), pseudovirus neutralization [13] was 5.23 µg/mL, the IC50 (µg/ml), pseudovirus neutralization [14] was > 50 µg/mL and the IC50, pseudovirus neutralization [15] was 9.99 µg/mL. For the same substance, the IC50 (µg/ml), pseudovirus neutralization [16] was > 50 µg/mL, the IC50, pseudovirus neutralization [17] was 4.25 µg/mL and the IC50 [18] was 0.89 µg/mL. For the same substance, the IC50 (µg/ml), pseudovirus neutralization [19] was 6.92 µg/mL and the IC50 [20] was > 50 µg/mL.
